# Measured values reported in the nanobody polyreactivity screen of Harvey et al. (2022).
# Experiment: yeast display, Sf9 membrane polyspecificity reagent, FACS + sequencing; frameworks hold sequencing errors
# How it was run: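 Genes from sorted yeast were amplified by colony PCR, read by MiSeq 2 × 250 sequencing and filtered on CDR length. These cells carried a synthetic nanobody library in Saccharomyces cerevisiae BJ5465 and were sorted by FACS into low and high (top ~1%) gates on anti-HA and streptavidin fluorescence. Polyreactivity is labelled according to the gate of origin.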
row,Sequence,polyreactivity (PSR sort gate)
1,QVQLVESGGGLVQAGGSLRLSCAASGITFRAYALGWYRQAPGKEREFVAAISWRGGSTYYADSVKGRFTISRDNAKNTVYLQMNSLKPEDTAVYYCAVGSYDHDYWYEYWGQGTQVTVSS,high polyreactivity
2,QVQLVESGGGLVQAGGSLRLSCAASGITFRFNARVWYRQEPGKEREFVAAITYSGDSTYYADSVKGRFTISRDNAKNTVYLQMNSLKPEDTAVYYCAADYYAISRRIFYYWGQGTQVTVSS,low polyreactivity
3,QVQLVESGGGLVQAGGSLRLSCAASGITFRFYALGWYRKAPGKEREFVAAISSRGGRTYYADSVKGRFTISRDHAKNTVYLQMNSLKPEDTAVYYCAADFYYRTVATVTSVARYDYWGQGTQVTVLS,high polyreactivity
4,QVQLVESGGGLVQAGGSLRLSCAASGITFRFYAMGWYRQAPGKERELVAAISWSGGSTNYADSVKGRFTISRDNAKNTVYLQLNSLKPEDTAVYYCAADQYYYRYIRTSKYDYWGQGTQVTVSS,high polyreactivity
5,QVQLVESGGGLVQAGGSLRLSCAASGITFRFYAMGWYRQPPGKERELVAAITSGGGTYYADSVKGRFTISRDNAKNTVYLQMNSLKPEDTAVYYCAAYQYNRKRHNYWGLGTQVTVSS,high polyreactivity
6,QVQLVESGGGLVQAGGSLRLSCAASGITFRGYAMGWYRKAPGKERELVASITNTDSTYYADSVKGRFTISRDNAKNTVYLQMNSLKPEDTAVYYCAARRGRKYGYWGQGTQVTVSS,high polyreactivity
7,QVQLVESGGGLVQAGGSLRLSCAASGITFRGYAMGWYRQAPGKERELVAAITWSGGSTYYADSVKGRFTISRDNAKNTVYLQMNSLKPEDTAVYYCAAYSLHNYLSEYGYWGQGTQVTVSS,high polyreactivity
8,QVQLVESGGGLVQAGGSLRLSCAASGITFRGYAMGWYRQAPGKERELVATISSGGSTNYADSVKGRFTISRDNAKNTVDLQRISLKPEDTAVYYCNAVYRRGYGYWGQGTQVTVSS,high polyreactivity
9,QVQLVESGGGLVQAGGSLRLSCAASGITFRKYAMGWSRQAPGKERELVAAISAGGGRTFYADSVKGRFTISRDNAKNTVYLQMNSLKPEDTAVYYCNADLGIGYDYWGQGTQVTVSS,high polyreactivity
10,QVQLVESGGGLVQAGGSLRLSCAASGITFRPYPMGWYRQAPGKERELVATINWSGGSTYYADSVKGRFTISRDNAKKTVYLQMNSLKPEDTAVSYCAVTWYVRRWYGYWGQGTQVTVSS,high polyreactivity
11,QVQLVESGGGLVQAGGSLRLSCAASGITFRRYAMGWYRKAPGTERELVATITRGDNTYYADSVKGRFTISRDNAKNTVYLQMNSLKPEDTAVYYCAKGWPTDDYDYWGQGTQVTVSS,high polyreactivity
12,QVQLVESGGGLVQAGGSLRLSCAASGITFRVNAMGWYRQAPGKERELVAAISQIGGSTYYADSVKGRFTISRDNAKNTVYLQMNSLKPEDTAVYYCAARRRWYNYNYWGQGTQVTVSS,high polyreactivity
13,QVQLVESGGGLVQAGGSLRLSCAASGITFRWNAMGWYRPAPGKERELVAAITTRGGGTYYADSVKGRFTISRDNAKNTVYLQMNSMKPEDTAVYYCAAKKSRYPYNYWGQGTQVTVSS,high polyreactivity
14,QVQLVESGGGLVQAGGSLRLSCAASGITFRYYAMGWYRPAPGKERELVAALTSGGSTNYADSVKGRFTISRDNAKNTVYLQMNSLIPEDTAVYYCAATSYYRTNYGLVFLYRRNYWGQGTQVTVSS,high polyreactivity
15,QVQLVESGGGLVQAGGSLRLSCAASGITFRYYAMGWYSQAPGKERELVAAITRGGRTNYADSVKGRYTISRDNAKNTVYLQMNSLKPEDTAVYYCAAGRVGRLSEYNYWGQGTQVTVSS,high polyreactivity
16,QVQLVESGGGLVQAGGSLRLSCAASGITFRYYVMGWYRQAPGKERELVAAISWSGGSTYYADSVKGRFTISRDNAKNTVYLQMNCLKPEDTAVYYCAAYKRRSNGRYWTYDYWGQGTQVTVSS,high polyreactivity
17,QVQLVESGGGLVQAGGSLRLSCAASGITFSEYAMGWYRQAPGKERELVAAITSGGNTYYADSVKGRFTISRDNAKNTVYLQMNSLKPEDTAVYYCAATFSSAFAYYYWGQGTQVTVSS,low polyreactivity
